Measurements reported in patent US20240317847A1 (Bayer, published 2024).

Biological target: T1, human IL2Ra (human, UniProt P01589 22-240, limits assumed)
T1 construct: coated on the ELISA plate; also called IL-2 receptor alpha
T1 sequence (looked up): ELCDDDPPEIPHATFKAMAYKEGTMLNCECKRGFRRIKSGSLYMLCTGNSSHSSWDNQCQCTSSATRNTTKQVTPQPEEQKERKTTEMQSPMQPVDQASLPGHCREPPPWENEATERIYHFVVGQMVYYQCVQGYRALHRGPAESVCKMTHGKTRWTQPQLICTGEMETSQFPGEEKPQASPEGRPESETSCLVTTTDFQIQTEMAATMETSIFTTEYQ
Experiment: ELISA on coated IL2Ra, signal ratio to isotype control at 1E-07 M antibody

Ratio IL-2Ra Binding Signal Antibody/Isotype Control: 0.8 ratio
B1: TPP-29697 (bispecific antibody, IgG1)
chain 1: QVQLVESGGGVVQPGRSLRLSCAASGFTFSHYDMHWVRQAPGKGLEWVAVISYHGSVKFYADSVKGRFTISRDNSKNTLYLQMNSLRAEDTAVYYCARTPGFHFDYWGQGTLVTVSSGGGGSGGGGSGGGGSQSVLTQPPSASGTPGQRVTISCSGSSSNIGSNYVSWYQQLPGTAPKLLIYYDDLRPSGVPDRFSGSKSGTSASLAISGLRSEDEADYYCSAWDDSLSGVVFGGGTKLTVLGGGGSGGGGSGGGGSGVECPPCPAPPVAGPSVFLFPPKPKDTLMISRTPEVTCVVVGVSHEDPEVKFNWYVDGVEVHNAKTKPREEQYNSTYRVVSVLTVLHQDWLNGKEYKCKVSNKQLPSPIEKTISKAKGQPREPQVYTLPPCRDELTKNQVSLWCLVKGFYPSDIAVEWESNGQPENNYKTTPPVLDSDGSFFLYSKLTVDKSRWQQGNVFSCSVMHEALHNHYTQKSLSLSPGK
chain 2: EVQLLESGGGLVQPGGSLRLSCAASGFTFSSYGMHWVRQAPGKGLEWVAVISYDGSYKYYADSVKGRFTISRDNSKNTLYLQMNSLRAEDTAVYYCAAGVPDYWGQGTLVTVSSGGGGSGGGGSGGGGSQSVLTQPPSASGTPGQRVTISCSGSSSNIGSDYDVHWYQQLPGTAPKLLIYSNEERPSGVPDRFSGSKSGTSASLAISGLRSEDEADYYCSAWDSSLSGPVFGGGTKLTVLGGGGSGGGGSGGGGSGVECPPCPAPPVAGPSVFLFPPKPKDTLMISRTPEVTCVVVGVSHEDPEVKFNWYVDGVEVHNAKTKPREEQYNSTYRVVSVLTVLHQDWLNGKEYKCKVSNKQLPSPIEKTISKAKGQPREPQVCTLPPSRDELTKNQVSLSCAVKGFYPSDIAVEWESNGQPENNYKTTPPVLDSDGSFFLVSKLTVDKSRWQQGNVFSCSVMHEALHNHYTQKSLSLSPGK
notes: scFv-kih-hIgG1 with Fc-silencing mutations; bispecific comprising CDRs of TPP-29528 and TPP-29519
